Results as given in the nanobody polyreactivity screen of Harvey et al. (2022).

Test: yeast display, Sf9 membrane polyspecificity reagent, FACS + sequencing; frameworks hold sequencing errors
Procedure, shortened: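 Synthetic nanobody libraries on Saccharomyces cerevisiae BJ5465 were galactose-induced for 36–48 hours, stained 1 hour at 4 °C with 10% biotinylated, detergent-solubilized Sf9 membrane reagent and enriched on streptavidin microbeads. FACS then separated cells into low and high (top ~1%) gates by anti-HA (expression) and streptavidin (reagent binding) fluorescence. Genes were colony-PCR amplified, MiSeq 2 × 250 sequenced and CDR-length filtered. A clone's polyreactivity label is that of its gate of origin.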

QVQLVESGGGLVQAGGSLRLSCAASGSTLAYNAMGWYRQAPGKERELVAAISSNGDSTYYADSVKGRFTISRDNAKNTVYLQMNSLKPEDTAVYYCAAGYYSRYYEAFEYYYWGQGTQVTVSS
polyreactivity (PSR sort gate): high polyreactivity

QVQLVESGGGLVQAGGSLRLSCAASGSTLDGNAMGWYRQAPGKERELVAAISVSGGSTYYADSVKGRFTISRDNAKNTVYLQMNSLKPEDPAVYYCSTEWRPRYYGTEPFDSWGQGTQVTVSS
polyreactivity (PSR sort gate): high polyreactivity

QVQLVESGGGLVQAGGSLRLSCAASGSTLESYAMGWYRQAPGKERELVAAISKSGGRTYYADSVKGRFTISRDNAKNTLYLQMNSLKPEDTAVYYCAADSGTHLTYYWGQGTQVTVSS
polyreactivity (PSR sort gate): high polyreactivity

QVQLVESGGGLVQAGGSLRLSCAASGSTLFWNAIGWYRQAPGKERELVAVISFSGVSTYYADSVKGRFTISRDNAKNTVYLQMNSLKPEDTAVYYCAAEVPHWPYYGRLHDRDYWGQGTQVTVSS
polyreactivity (PSR sort gate): low polyreactivity

QVQLVESGGGLVQAGGSLRLSCAASGSTLGAYAMGWSRQAPGKERELVAAISRSGGNTYYADSVKGRFTISRDNAKNTVYLQMNSLKPDDTAVYYCAAVRLYRYDYWGQGTQVTVSS
polyreactivity (PSR sort gate): low polyreactivity

QVQLVESGGGLVQAGGSLRLSCAASGSTLGVYAMGWYRQAPGKERELVAAISSGGSTTYADSVKGRFTISRDNAKNTDYLQMNSLKPEDTAVYYCAATNVRGVYYWGQGTQVTVSS
polyreactivity (PSR sort gate): high polyreactivity

QVQLVESGGGLVQAGGSLRLSCAASGSTLGYYVMGWYRQAPGKERELVAAITGGGSTDYADSVKGRFTISRDNAKNTVYLQMNSLIPEDTAVYYCAAERTRTGQLFWWGPIYDYWGQGTQVTVSS
polyreactivity (PSR sort gate): low polyreactivity

QVQLVESGGGLVQAGGSLRLSCAASGSTLHLYAMGWYRQAPGKERELVADITSGGDTYYADSVKGRFTISRDNAKNTVYLQMNSLKPEDTAVYYCNAVYEGRYEYAYYYRYDYWGQGTQVTLSS
polyreactivity (PSR sort gate): high polyreactivity

QVQLVESGGGLVQAGGSLRLSCAASGSTLLANAMGWYRQAPGKERELVAASTYYADSVKGRFTISRDNAKNTVYLQMNSLKPEDTAVYYCAADTVRGGPDGIEYNYWGQGTQVTVSS
polyreactivity (PSR sort gate): low polyreactivity

QVQLVESGGGLVQAGGSLRLSCAASGSTLLYYAKGWYRQAPGKERELVAAISWRGGSTYYADSVKGRFTISRDNAKYTVYLQMNSLKPEDTAVYYCAARSLRLVGPYYYWGQGTQVTVSS
polyreactivity (PSR sort gate): high polyreactivity

QVQLVESGGGLVQAGGSLRLSCAASGSTLNRNAMGWYRQAPGKERDLVAAIRVSGGSTYYADSVKGRFTISRDNAKNTVYLQMNSLKPEDTAVYYCATRYVRARWYGYWGQGTQVTVSS
polyreactivity (PSR sort gate): high polyreactivity

QVQLVESGGGLVQAGGSLRLSCAASGSTLNSYVMGWYRQAPGKERELVATIRSGSSTNYADSVKGRFTISRDNAKNTVYLQMNSLKPEDTAVYYCAGDAYSLCYDSWGQGTQVTVSS
polyreactivity (PSR sort gate): low polyreactivity

QVQLVESGGGLVQAGGSLRLSCAASGSTLNVNAMGWYRQAPGKERELVAAITSGGSTYYADSVKGRFTISRDNEKNTVYLQIHSLKPEDTAVYYCNKRRSWRPTYPIGGSGFYYWGQGTQVTVSS
polyreactivity (PSR sort gate): low polyreactivity

QVQLVESGGGLVQAGGSLRLSCAASGSTLPGNVMAWYRQAPGKERELVAAISKRGASTYYADSVKGRFTISRDNAKNTVYLQMNSLKPEDTAVYYCATRTRGSVFRFDYWGQGTQVTVSS
polyreactivity (PSR sort gate): high polyreactivity

QVQLVESGGGLVQAGGSLRLSCAASGSTLPNNAMGWYRQAPGKERELVAAISWRGTRTYYADSVKGRFTISRDNAKNTVYLQMNSLKPEDTAVYYCAAGGVGAYDYWGQGTEVTVSS
polyreactivity (PSR sort gate): high polyreactivity

QVQLVESGGGLVQAGGSLRLSCAASGSTLPRYAMGWYRQAPGKEREFVAAMTWRGGSTYYADSVKGRFTISRDNAKNTVYLQMNSLKPEDTAVYYCNTHRNGGSHRRYNYWGQGTQVTVSS
polyreactivity (PSR sort gate): high polyreactivity

QVQLVESGGGLVQAGGSLRLSCAASGSTLPVNAMGWYRQAPGKERELVAAINRDGSTNYADSVKRPFTISRDNAKNNVYLQMNCLKPDDTAVYYCGADGFGYPGKRYDYWGHGTQVTVSS
polyreactivity (PSR sort gate): low polyreactivity

QVQLVESGGGLVQAGGSLRLSCAASGSTLQINGMGGYRQAPGKERELVAAISIGGDTNYADSVKGRFTISRDNAKNTEMNSLKTEDTAVYYCNTDYFGSLVVVIFDYWGQGTQVTVSS
polyreactivity (PSR sort gate): low polyreactivity

QVQLVESGGGLVQAGGSLRLSCAASGSTLQINGMGWYRQAPGKERELVAAISIGSDTNYADSVKGRFTISRDNAKNTEMNSLKPEDTAVYYCAAQRRYHQDTTIGPGNYYYWGQGTQVTVSS
polyreactivity (PSR sort gate): low polyreactivity

QVQLVESGGGLVQAGGSLRLSCAASGSTLQVNAMGWYRQAPGNERELVATISFSGGSTYYADSVKGRFTISRDNAKYTVYLQMNSLKPEDTAVYYCNADSFVSWYNQFWYQATYDYWGQGTEVTVSS
polyreactivity (PSR sort gate): low polyreactivity

QVQLVESGGGLVQAGGSLRLSCAASGSTLQVYAMGWYREAPGKERELVAAISKSGGRTYYADSVKGRFSISRDNAKNTFYLQMNSLKPEDTAVYYCAADVGTAQSTYGYWGQGTQVTVSS
polyreactivity (PSR sort gate): high polyreactivity

QVQLVESGGGLVQAGGSLRLSCAASGSTLRRYAMGWYRQAPGKERELVAAISGTGSRTYYADSVKGRFTISRDNAKNTVYLQMNSLKPEDTAVYYCNASPYRLTENDYWGQGTQVTVSS
polyreactivity (PSR sort gate): high polyreactivity

QVQLVESGGGLVQAGGSLRLSCAASGSTLRRYAMGWYRQAPGKERELVAINSSGGITYYADSVKGRVTISRDNAKNTVYLQMNSLKPEDTAVYYCNARRPAPGYGYDYWGQGTQVTVSS
polyreactivity (PSR sort gate): low polyreactivity

QVQLVESGGGLVQAGGSLRLSCAASGSTLRRYAMGWYRQAPGTERELVASNSRGGTSTYYADSVKGRFTISRDNAKNTVYLQMKSLKPEDTAVYYCAAATPYRYNYWGQGTQVTVSS
polyreactivity (PSR sort gate): high polyreactivity

QVQLVESGGGLVQAGGSLRLSCAASGSTLSDYVMGWYRQAPGKERELVAAITSGGSTSYADSVKGRFTISRDNAKNTVYLQMNSLKPEDTAVYYCNATLLFPLLYGPESGEFDYWGQGTQVTVSS
polyreactivity (PSR sort gate): low polyreactivity

QVQLVESGGGLVQAGGSLRLSCAASGSTLSGNAMGWYRQAPGKERELVAAIRWSGDITYYADSVKGRFTISRDNAKNTVYLQMNSLKPEDTAVYYCAATLGNRWFHYNYWGQGTQVTVSS
polyreactivity (PSR sort gate): low polyreactivity

QVQLVESGGGLVQAGGSLRLSCAASGSTLSKYAMGWYRQAPGKERELVAAISQRGGSTYYADSVKGRFTISRDNAKNTVYLQMNSLKPEDTAVYYCNALQRRYGYWGQGTQVTVSS
polyreactivity (PSR sort gate): high polyreactivity

QVQLVESGGGLVQAGGSLRLSCAASGSTLSKYGMGWYRQAPGKERDLVAAISYSSGSTYYADSVKGRFTISRDNAKNTVYLEMNSLKPEDTAVDYCAADRFRSLHYWTYDYWGQGTQVTVSS
polyreactivity (PSR sort gate): high polyreactivity

QVQLVESGGGLVQAGGSLRLSCAASGSTLSVNAMGWYRQAPGKERELVAAIDFDGGDTYYADSVKGRFTISRDNAKNTVYLQMKSLKPEDTAVYFCAADIGGQYDYLADDYWGQGNQVTVSS
polyreactivity (PSR sort gate): low polyreactivity

QVQLVESGGGLVQAGGSLRLSCAASGSTLSVNAMGWYRQAPGKERELVAAIDFDGGDTYYADSVKGRFTISRDNAKNTVYLQMNSLKPEDTAVYYCAADIGGQYDYLADDYWGQGTQVTVSS
polyreactivity (PSR sort gate): low polyreactivity

QVQLVESGGGLVQAGGSLRLSCAASGSTLTRNAMGWYRQAPGKERELVAAITTSGGRTYYADSVKGRFTISRDNAKNTVYLQMNSLKPEDTAVYYCAARQRSEYVSGSLFYYWGQGTQVTVSS
polyreactivity (PSR sort gate): high polyreactivity

QVQLVESGGGLVQAGGSLRLSCAASGSTLVFYAMGWYRQAPGKERELVAAIDSDGGTYYADSVKGRFTISRDNAKNTVYLQMNSLKPEDTAVYYCNAAGALIFGEGYYVEYDYDYWGQGTQVTVSS
polyreactivity (PSR sort gate): low polyreactivity

QVQLVESGGGLVQAGGSLRLSCAASGSTLVTNPMGWYRQAPGKERELVAAITFSGGTTYYADSVKGRFTISRDTAKNTVYLHMNSLKPEDTAVYYCAAEIWLEYVGYDYWGQGTQVTVSS
polyreactivity (PSR sort gate): high polyreactivity

QVQLVESGGGLVQAGGSLRLSCAASGSTLVYNGMVWYRQAPGKEREFVAAIRSNDGSTYYADSVKGRFTISRDNAKNTVYLQMNSLKPEDTAVYYCNNDVWDGYDWPEFDYWGQGTQVTVSS
polyreactivity (PSR sort gate): low polyreactivity

QVQLVESGGGLVQAGGSLRLSCAASGSTLWFNAMGLYRPAPGKERELVAAINWSGGSTYYADSVKGRFTISRDNAKNTVYLQMNSLKPEDTAVYYCAAVYQYVHYVWYDYWGQGTQVTVSS
polyreactivity (PSR sort gate): low polyreactivity

QVQLVESGGGLVQAGGSLRLSCAASGSTLWRYAMGWYRQAPGKEREFVAAISGSGGSTYYADSVKGRFTISRDNAKNTVYLLMNSLKPEDTAVYYCAASRKYRNPDRSMYYWGQGTQVTVSS
polyreactivity (PSR sort gate): high polyreactivity

QVQLVESGGGLVQAGGSLRLSCAASGSTLWRYTMGWYRQAPGKVREFVADINRGSSTNYADSVKGRFTISRDNAKNSVYLQINSLKPEDTAVYYCAAAKVHYGYNSWYYYWRQGTQVTVSS
polyreactivity (PSR sort gate): low polyreactivity

QVQLVESGGGLVQAGGSLRLSCAASGSTLWYYAMGWYRQAPGKERELVADITSSGNTNYADSVKGRFTISRDNAKNTVYLQMISLKPEDTAVYYCAADVTKYHDGHEYDYWGQGTQVTVSS
polyreactivity (PSR sort gate): low polyreactivity

QVQLVESGGGLVQAGGSLRLSCAASGSTLYAYAMGWYRQAPGKERELVAAIRTGGSTYYADSVKGRFTISRDNAKNTVYLQMNSLKPEDTAVYYCAADHGYQYGYWGQGTQVTVSS
polyreactivity (PSR sort gate): low polyreactivity

QVQLVESGGGLVQAGGSLRLSCAASGSTLYKYAMGWYRQAPGKERELVAAISWSGSSTYYADSVKGRFTISRDNAKNTVYLQMNSLKPEDTAVYYCAAYPRPYIGYTDGYVWYEFDYWGQGTQVTVSS
polyreactivity (PSR sort gate): low polyreactivity

QVQLVESGGGLVQAGGSLRLSCAASGSTLYPYAMGWYRQAPGKERELVAVITLRGGSTYYADSVKGRFTISRDNAKNTVYLQMNSLKPEDTAVYYCATGNSKGRRTVRYGYWGQGTQVTVSS
polyreactivity (PSR sort gate): high polyreactivity

QVQLVESGGGLVQAGGSLRLSCAASGSTLYPYDMGWYRQAPGTERELVAAIDSGGSTNYADSVKGRFTISRDNAKNTVYLQMNSLKPEDTAVYFFAADASGENDYWGQGTQVTVSS
polyreactivity (PSR sort gate): low polyreactivity

QVQLVESGGGLVQAGGSLRLSCAASGSTLYRNAMGWYRQQPGKERELVAGITSSGTTTYYADSVKGRFTISRDNAKNTVYLQMNSLKPEDTAVYYCAARSLGFYYYDMDYWGQGTQVTVSS
polyreactivity (PSR sort gate): low polyreactivity
